Tested on: isolated rat liver mitochondria
Test: ClickIn/MPP uptake experiment in isolated rat liver mitochondria (MALDI-TOF quantification of clicked, processed PNA 8)
Format: in vitro ADME
Experimental: Rat liver mitochondria were prepared by differential centrifugation as previously described, and diluted to a 20 mg protein ml^−1 concentration in STE buffer (250 mM sucrose, 5 mM Tris, 1 mM EGTA, pH 7.4) and stored for a maximum of 3 h on ice. Peptide–PNA 6 was dissolved at the indicated concentrations in 100 µl KCl buffer (120 mM KCl, 10 mM HEPES, 1 mM EGTA, 1 mM ADP, 1 mM MgCl2, 1 mM KPi, 0.05% BSA, pH 7.4) supplemented with 10 mM potassium succinate, 4 µg ml^−1 rotenone and 10 µM MitoOct. Where indicated carbonyl cyanide-4-(trifluoromethoxy)phenylhydrazone (FCCP, 500 nM) was added to the buffer. The buffer was warmed for 5 min at 37°C after which the reaction was initiated by addition of 5 µl mitochondria suspension (100 µg protein). The mitochondria were incubated for 1 h at 37°C, after which the reaction was stopped by the addition of 3-phenyl-1,2,4,5-tetrazine (PhTet, 50 µM). The mitochondria were pelleted by centrifugation at 16 000g for 1 min, and supernatant was removed. Next 100 µl 20% acetonitrile solution with 0.1% formic acid, 50 µM PhTet and 0.1 µM internal standard 5 was added to the pellet. The pellet was suspended by three cycles of freezing in solid CO2 (5 min) and sonication in a Grant XB2 ultrasonic bath. The obtained solution was centrifuged at 16 000g for 10 min. The sample was spotted onto an MALDI-plate using the bottom-layer method. Matrix (0.75 µl, 50% acetonitrile, 5 mg ml^−1 α-cyano-4-hydroxycinnamic acid, 10 mM dibasic ammonium citrate, 0.1% TFA) was spotted on the plate and 0.75 µl sample was mixed in. The spot was left to dry at room temperature, after which another layer of 0.75 µl of matrix was added. In total, 20 spectra with 10 shots each were collected per spot, using a minimum intensity of 1000 and a maximum of 10 000 as selection criterion, averages were taken of three spots per experiment. All experiments were performed in triplicate using different mitochondrial preparations and are presented as averages ±s.e.m.
Isolated rat liver mitochondria were incubated with various concentrations of peptide (0.1–10 µM) in import buffer, in the presence of MitoOct, for 1 h at 37°C. As previously described, the reaction was stopped by addition of PhTET and centrifugation. The pellet was extracted (20% acetonitrile, 0.1% formic acid, 50 µM PhTet, 0.1 μM 5) and analysed by MALDI-TOF (figure 3 and electronic supplementary material, S1). […] This is consistent with FCCP not only inhibiting the ClickIn reaction, but also inhibiting the processing of COX8-PNA-click by stopping import of 6. The absence of signal in the presence of FCCP is striking (figure 3 and electronic supplementary material, S1), and enables the qualitative observation of PNA uptake in isolated mitochondria. […] It is interesting to note that, even though the MPP is known to cleave after the 25th residue of the COX8 pre-sequence, we see no evidence of the four amino acids, IHSL, predicted to remain at the N-terminal of our cleaved product. Our previous unpublished results have shown a very minor amount of the PNA product still carrying leucine at the N-terminal but not any of the remaining amino acids. It is likely that these residues are removed by a protease residing in the mitochondrial matrix.

In the case of “COX8-Cys-Ac-GTCA-Lys(N3)-NH2 [compound 6]”, the “formation of product 8 in the presence of FCCP (uncoupled membrane potential)” value (as the uptake experiment, plus FCCP 500 nM, all added concentrations of 6 (0.1–10 µM), 1 h at 37°C, MALDI-TOF) is reported as “no product 8 could be observed”, the “formation of clicked PNA (product 8) as measure of mitochondrial matrix import” value (isolated rat liver mitochondria (100 µg protein) in 100 µl KCl buffer pH 7.4, 10 mM succinate, 4 µg/ml rotenone, 10 µM MitoOct, 0.1–10 µM 6, 1 h at 37°C, stopped with 50 µM PhTet, pellet extract, MALDI-TOF with 0.1 µM internal standard 5, triplicate, different mitochondrial preparations) is reported as “Significant amounts of clicked PNA were observed in all samples” and the “concentration dependence of the ClickIn/MPP reaction (quantified 8)” value (isolated rat liver mitochondria, 10 µM MitoOct, 1 h at 37°C, MALDI-TOF with internal standard 5, figure 3c, averages ± s.e.m., triplicate) is reported as “typical dose–response curve for concentrations of 6 up to 5 µM”. For the same substance, the “cleaved but not clicked 6 seen in mass spectra” value (isolated rat liver mitochondria, 10 µM MitoOct, 1 h at 37°C, MALDI-TOF, without FCCP, not observed in the presence of FCCP) was “small amounts of cleaved but not clicked 6” and the “toxic effect on the mitochondria” value (isolated rat liver mitochondria, concentrations of 6 higher than 5 µM, inferred from the dose–response curve) was “might have a toxic effect on the mitochondria”.

— PMC5311907, “ClickIn: a flexible protocol for quantifying mitochondrial uptake of nucleobase derivatives” (Interface Focus, 2017)
